Here are results for 1 molecule from US20080221021A1 (published 2008).

The target in this test is T1, rat CRFBP C-terminally fused with a His6 sequence (rat, UniProt P24388 25-322).
T1 chain: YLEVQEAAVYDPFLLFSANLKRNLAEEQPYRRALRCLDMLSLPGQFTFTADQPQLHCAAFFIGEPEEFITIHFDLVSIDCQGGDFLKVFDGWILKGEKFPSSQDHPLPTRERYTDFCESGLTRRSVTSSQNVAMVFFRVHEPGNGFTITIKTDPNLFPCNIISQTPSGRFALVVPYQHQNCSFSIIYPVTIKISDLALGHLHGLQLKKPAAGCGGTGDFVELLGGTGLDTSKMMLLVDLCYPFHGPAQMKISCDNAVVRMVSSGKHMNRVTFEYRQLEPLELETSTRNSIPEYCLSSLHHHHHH
The test is described as follows: competition binding.

Where no end group is shown, it is not given here.

As usually defined, the IC50 is the concentration that gives 50% inhibition. Regarding SEEPPISLDLTFHLLREVLEMARAEQLAQQAHSNRKLMEII (not fully specified) [human/rat corticotropin-releasing factor], the IC50 was 0.54 nM.
